Assay results as given in the supplement of paper PMC9170038.

Key:
[1] = tested on: MS2 coat protein; test: apparent KD of MS2 coat protein, switch ON state; designed switch direction (-1 OFF switch, 1 ON switch): -1; higher = weaker reporter binding; conditions: FMN input: 0 or 200 uM; Eterna round: R93 (includes R88 designs)
How it was run: (§1)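 Binding of SNAP-549-labelled MS2 coat protein was measured on designed RNA switches transcribed on-chip from Illumina sequencing clusters. The protein rose in twofold steps from 0.7 or 1.5 nM to 3 µM, with 0.8–1.5 h per step early on and 10–20 min per step later, in 100 mM Tris-HCl pH 7.5, 80 mM KCl, 4 mM MgCl2, without or with constant ligand. Each design's apparent KD is the median of fits to its normalised cluster binding curves.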

[2] = tested on: MS2 coat protein; test: apparent KD of MS2 coat protein, switch OFF state (with FMN for OFF switches, without FMN for ON switches); designed switch direction (-1 OFF switch, 1 ON switch): -1; higher = weaker reporter binding; conditions: FMN input: 0 or 200 uM; Eterna round: R93 (includes R88 designs)
How it was run: as §1

Sequence | apparent KD of MS2 coat protein [1] [nM] | apparent KD of MS2 coat protein [2] [nM]
AAAAAACAUGAGGAUCACCCAUGUAAGGAUAUCUAAAAUAAAAGAAAAAUAAAGAAAAGGAGAAGGUACAUGGA [JL wbt mod 22] | 22.9 | 15.6
AAAAAACAUGAGGAUCACCCAUGUAAGGAUAUGACUUAAAUAAAGAAAGAAGAAAUAGUCAGAAGGUACAAAUA [Disincluded (MS2 Riboswitches - States energetically close)] | 20.4 | 31
AAAAAACAUGAGGAUCACCCAUGUAAGGAUAUGCAAAAAAUGGGUAAAAGGGUAAAAAGCAGAAGGUACAAAAA [scarecrow1] | 156 | 92.1
AAAAAACAUGAGGAUCACCCAUGUAAGGAUAUGCAAAAUAAAAGAAAUAAAAAGGAAAGCAGAAGGUACAUGAA [JL wbt mod 8] | 21.9 | 42.5
AAAAAACAUGAGGAUCACCCAUGUAAGGAUAUGCAGAUUAUAAGAAAAAAAAAAAAAAGCAGAAGGUACAAAAA [Default title] | 37.4 | 28.2
AAAAAACAUGAGGAUCACCCAUGUAAGGAUAUGCUCGGGCGAAAAAGCAAAAAAAAGAGCAGAAGGUACAAAAA [66%, Wbt, 42] | 20.5 | 38.7
AAAAAACAUGAGGAUCACCCAUGUAAGGAUAUGCUGGUGCGAAAGCACAAAAAAAACAGCAGAAGGUACAAAAA [66%, Wbt, 37] | 17.4 | 27.5
AAAAAACAUGAGGAUCACCCAUGUAAGGAUAUGUGAAAAAAAAAAUAAAAAAAAAAAAGCAGAAGGUACAAAAA [LROPPY Exclusion 1 - v01_deltaG=3.64] | 66.5 | 74.8
AAAAAACAUGAGGAUCACCCAUGUCAGGAUAUACGAUAAAAAAAAAAAAAAAAAAAAUGUAGAAGGGACAAAAA [Simple 1] | 60.3 | 60.8
AAAAAACAUGAGGAUCACCCAUGUCAGGAUAUCCGAAAAAAAAAAAAAAAAAGGCCUUGGAGAAGGGACAUUCC [Chica Displaced 7- Jieux - Exclusion 1] | 53.7 | 57.5
AAAAAACAUGAGGAUCACCCAUGUCAGGAUAUCCGGAAAAAAAAAAAAAAAAGGCGUUGGAGAAGGGACAUUCC [Chica Displaced 8 - Jieux - Exclusion 1] | 28.7 | 36.8
AAAAAACAUGAGGAUCACCCAUGUCAGGAUAUCCGGUUCUUAAAAAAAAAAAGGCGUUGGAGAAGGGACAUUCC [Chica Displaced 11 - Jieux - Exclusion 1] | 28.9 | 38
AAAAAACAUGAGGAUCACCCAUGUCAGGAUAUCUGUAUAAAUAAAAAAAUAAAAAUACAGAGAAGGGACAAAAA [Ex1: 608] | 50.5 | 51.7
AAAAAACAUGAGGAUCACCCAUGUGAGGAUAUACAAAACCCAUAUAAAAAGGGAAAAAGUAGAAGGCGCAAAAA [wbt round 1 mod 8] | 20.8 | 24.3
AAAAAACAUGAGGAUCACCCAUGUGAGGAUAUACAGAAUGGAAUAAAAUAACAAGAAAGUAGAAGGCACAAAAA [Ex 1 May 38] | 36.2 | 41.6
AAAAAACAUGAGGAUCACCCAUGUGAGGAUAUCCUGAAUGAAAUAAAAUAUCUCGAAAGGAGAAGGCGCAAAAA [Ex 1 May 33] | 67.7 | 49.9
AAAAAACAUGAGGAUCACCCAUGUGAGGAUAUCGCUAGUGAGACCCUAGUGUCAGUGAUGAGAAGGCACAUAAA [Brourd 613 Mod 8 - Jieux - Exclusion 1] | 32.8 | 32.5
AAAAAACAUGAGGAUCACCCAUGUGAGGAUAUGAAAAAACAAAAAAAAAAGUAAACAAUCAGAAGGCACAACAA [JR_Exc--1_Sub1211] | 27.3 | 24.4
AAAAAACAUGAGGAUCACCCAUGUGAGGAUAUGAAAAUACUAAGACAACAGUAAUCAAUCAGAAGGCACAACAA [JR_Exc--1_Sub1209] | 20.1 | 25.8
AAAAAACAUGAGGAUCACCCAUGUGAGGAUAUGACGUAAAUAAAGAAAGAAUAAAUCGUCAGAAGGCACACCAA [Mat - Exclusion 1 - Eli mod - D71] | 31.4 | 49.2
AAAAAACAUGAGGAUCACCCAUGUGAGGAUAUGACGUAAAUAAAGAAAUAAGAAAUCGUCAGAAGGCACAAAAA [Mat - Exclusion 1 - Eli mod - D73] | 28.6 | 41.7
AAAAAACAUGAGGAUCACCCAUGUGAGGAUAUGCUAAAAAAAAUAAAAAUAAAACAUAGCAGAAGGCACACCAA [Amethyst 57] | 28.2 | 38.4

Sequence | apparent KD of MS2 coat protein [1] [nM] | apparent KD of MS2 coat protein [2] [nM]
AAAAAACAUGAGGAUCACCCAUGUGAGGAUAUUAAAAAUAAGAAGGCAUAAAAAAAAAUAAGAAGGCACAUGAA [Meechl MS2 Ex1] | 27.9 | 33.2
AAAAAACAUGAGGAUCACCCAUGUGAGGAUAUUGGUAUUAAAGACACCCACUUAAUGGCGAGAAGGCGCAAAAA [Brourd 613 Mod 19 - Jieux - Exclusion 1] | 25.5 | 27.5
AAAAAACAUGAGGAUCACCCAUGUUAGGAUAUGCAGAGGGAAAAAAAAAAAAAAAAAAGCAGAAGGAACAUAAA [Design1] | 31.5 | 26.5
AAAAAAGGAGGAUAUACGAACAUGUCAAAAGACGUGAAGGGACAUGAGGAUCACCCAUGUAGAAGGCCUAAAAA [JL Part Open 34] | 35.4 | 60.8
AAAAAAGGAGGAUAUACGAACAUGUCGAAAGACGUGAAGGGACAUGAGGAUCACCCAUGUAGAAGGCUUAAAAA [Mat - Exclusion 2 - JL mod - D69] | 37 | 23.9
AAAAAAGGAGGAUAUACGUACAUGUCAAAAGACGUGAAGGGACAUGAGGAUCACCCAUGUAGAAGGCCUAAAAA [JL Part Open 33] | 45.2 | 78.3
AAAAAAUCAGGAUAUACAUGAGGAUCACCCAUGUGAAAGAACGAUUAACGACCAGCAAGUAGAAGGGAUAAAAA [Ruby 81] | 18.1 | 19.7
AAAAAAUGAGGAUAUACAUGAGGAUCACCCAUGUAAAAGGUCAGGGUGGCGGAGGACGGUAGAAGGCAUAAAAA [Excls3-X] | 21.6 | 18.2
AAAAACAGAGGAUAUACAAAAUUAUGACGAAAGUCAUAAAAACAUGAGGAUCACCCAUGUAGAAGGCUGGAAAA [Mat - Mod of Meechl] | 28.5 | 22.7
AAAAACGGAGGAUAUACAAAUUAAGGAAGAAAACACGAAAAACAUGAGGAUCACCCAUGUAGAAGGCCGGAAAA [Ex 2 #3] | 24.1 | 29.7
AAAAACUCAGGAUAUAUUAUGGGACAAUGAAGGAAGAUAAAACAUGAGGAUCACCCAUGUAGAAGGGAGAAAAA [JR_Exclusion2_Sub2] | 57.7 | 62.8
AAAAACUGAGGAUAUACAUGAGGAUCACCCAUGUGAAAGAAAGAAAAAAGAAAAGAAAGUAGAAGGCAGAAAAA [Ruby 76] | 34 | 29.5
AAAAACUGAGGAUAUACGAAAAAAAAAAAAAAAAAAAAAAAACAUGAGGAUCACCCAUGUAGAAGGCAGAAAAA [exclusion 02 - A] | 41.4 | 57.5
AAAAACUGAGGAUAUACUUUGGGAAAAGAAAAGAUGAUGUUACAUGAGGAUCACCCAUGUAGAAGGCAGAAAAA [Mat - Exclusion 2 - Mod - D154] | 25.4 | 43
AAAAAGAUAGGAUAUACGAACAUGUCAAAAGACGUGAAGGGACAUGAGGAUCACCCAUGUAGAAGGGUUAAAAA [JL Wide Open 38] | 155 | 66.6
AAAAAGAUAGGAUAUACGUACAUGUCGAAAGACGUGAAGGGACAUGAGGAUCACCCAUGUAGAAGGGUUAAAAA [Mat - Exclusion 2 - JL mod - D91] | 185 | 52.4
AAAAAGCGAGGAUAUACAUAGCUAAGACAAAUAAGCAAAAAACAUGAGGAUCACCCAUGUAGAAGGCGCAAAAA [Exclusion2-01] | 19.6 | 15.4
AAAAAGCGAGGAUAUACAUAGCUAAGACAAAUAAGCAAGGGACAUGAGGAUCACCCAUGUAGAAGGCGCAAAAA [Exclusion 2-01... 60% 1] | 34.7 | 97.3
AAAAAGCGAGGAUAUACAUGAGGAUCACCCAUGUCAAAAGAAUAUAAAGAAAUAGGAAGUAGAAGGCGCAAAAA [Ex 3 #3] | 67.1 | 56.4
AAAAAGCGAGGAUAUACAUGAGGAUCACCCAUGUGAAAAAAAAAAAAAAAAAAAAAAAGUAGAAGGCGCAAAAA [GC super strong! + G boost] | 46.4 | 39.2
AAAAAGCGAGGAUAUACAUGAGGAUCACCCAUGUGAAAAAAAAAAAAAAAAAAAAAAAGUAGAAGGCGCAAAAA [H20 RNA] | 46.4 | 39.2
AAAAAGCGAGGAUAUACGAGUCAAAGAAAAGACAAAAAGGGACAUGAGGAUCACCCAUGUAGAAGGCGCAAAAA [Fiskers exclusion D2 62% 3] | 30.5 | 47.1
